Reference: patent publication US20040002450A1, “Y17 - isolated molecules comprising epitopes containing sulfated moieties, antibodies to such epitopes, and uses thereof” (priority 2000, published 2004)

Legend:
[1] = biological target: T1, GPIb (glycocalicin) derived from platelets (Homo sapiens, UniProt P07359); assay: ELISA to GC (glycocalicin), monomer versus dimer; assay type: binding
T1 construct: glycocalicin (soluble, extracellular fragment of GPIbα); from tissue; host or cells: human platelets
Procedure: An ELISA assay was performed to ascertain the differences in binding between the monomer (the Y1 scFv-also known as Y1-kak) and the dimer Y1-cys-kak (the cysteine dimer) for antigen GPIb (glycocalicin) derived from platelets. A polyclonal anti single chain antibody and/or a novel polyclonal anti-VL (derived from rabbits) and anti-rabbit HRP, were used to detect the binding to GPIb. […] For instance, to reach 0.8 OD units 12.8 μg/ml of monomer was used compared to only 0.1 μg/ml of dimer.
100 ml of purified glycocalicin was incubated in a 96 flat well maxisorp plates, overnight at 4 degrees celsius. The plate was washed with PBST (PBS+0.05% tween) 3 times, then […] of PBST-milk (PBST+2% Non fat milk), for 1 hr at room temperature. The plate was washed with PBST, and the monomer or dimer (100 ml) was added in PBST-milk at different concentrations for 1 hr at room temp. Then the plate was washed and anti-VL polyclonal (derived from immunized rabbits with VL derived from Y1) (1:100 diluted in PBST-milk) was added for an hour. The plate was washed and anti-rabbit HRP was added for an additional hour. The plate was washed 5 times and 100 μl TMB substrate was added for approximately 15 minutes then 100 μl of 0.5H2SO4 was added to stop the reaction. The optical density of the plate was measured at 450 nm in an ELISA reader.

platelet GPIbα [2] = assay: Western blot/FACS of endoprotease-cleaved platelet GPIbα and glycocalicin; assay type: binding, human; conditions: immunoblots and FACS
Excerpt: (§1) Immunoblotting and endoprotease cleavage techniques were used to identify the epitope for Y1 on the surface membrane of platelets.
(§2) The enzyme O-Sialoglycoprotein endoprotease from Pasteurella haemolytica (Cedarlan CLE 100) selectively cleaves human platelet GPIb and specifically cleaves only proteins containing sialylated, O-linked glycans. […] This enzyme has been reported to cleave GPIb, which is heavily O-glycosylated, but not GPIIb-IIIa or other receptors on platelets. GPIbα was digested with O-Sialoglycoprotein endoprotease in order to further establish the binding of Y1 to the molecule.
(§3) Mocarhagin [Sigma L4515a] is a cobra venom metalloproteinase that cleaves platelet GPIbα specifically at a single site between residues glu-282 and asp-283, thereby generating two stable products: a ˜45-kDa N-terminal fragment (His1-Glu282), which is released into the supernatant, and a membrane-bound ˜95 kDa C-terminal fragment.
(§4) Cathepsin G (Sigma C4428), a neutrophil serine protease, cleaves glycocalicin at a first cleavage site between residues Leu-275 and Tyr-276 and at a second cleavage site between residues Val-296 and Lys-297. Cathepsin G treatment of glycocalicin generates two N-terminal fragments: a small N-terminal 42 kDa fragment (His1-Leu275), a large N-terminal 45 kDa N-terminal fragment (His1-Val-296), and corresponding ˜95 kDa C-terminal fragments. (FIG. 1).
(§5) For mocarhagin digestion, 10^8 washed platelets in TS buffer (0.01 M Tris, 0.15 M sodium chloride, pH 7.4) containing 1 mM calcium chloride were treated with 12 μg/ml mocarhagin (final concentration) for 1 hour at 22° C. and digestion was stopped by adding EDTA to 0.01 M.
(§6) 10^6 platelets in 0.1 M Tris buffer pH 7.4 containing 0.2% albumin and protease inhibitors (10 μM leupeptin, 0.24 mM PMSF) was incubated with 0.14 mg/ml O-Sialoglycoprotein endoprotease (final concentration) for 45 min at 37° C. and digestion was stopped by adding sample buffer and boiling. The sample buffer used contained 3% SDS, 12% glycerol, 50 mM Tris HCl, 2% β-mercaptoethanol, and 0.03% bromphenol blue.
(§7) For mocarhagin digestion, glycocalicin in TS buffer containing 1 mM calcium chloride was incubated with 10 μg/ml mocarhagin (final concentration) for 1 hour at 22° C. and digestion was stopped by adding EDTA to 0.01 M.
(§8) For cathepsin G digestion, glycocalicin in TS buffer containing 1 mM calcium chloride was incubated with 3.4 μg/ml cathepsin G (final concentration) for 4 hour at 22° C. and digestion was stopped by adding PMSF to 1 mM.

platelet GPIbα [3] = biological target: T2, platelet GPIbα (Homo sapiens, UniProt P07359); assay: as above; assay type: binding
T2 construct: endogenous in cells; host or cells: washed human platelets (blood-bank platelet concentrate)
Excerpt: as §1, §2, §3, §4, §5, §6, §7, §8

washed platelets = assay: Ristocetin-induced agglutination of washed platelets after scFv preincubation; assay type: cell-based, human
Procedure: Aggregation is determined in PRP due to the presence of thrombotic agents, while agglutination is determined in washed platelets. The effect of Y1 (scFv) on agglutination of washed platelets was tested at various concentrations of Y1. Platelets were pre-incubated with Y1 scFv, Y17 scFv, Y16-scFv, or a control TM-1 scFv for 4 min at 37° C. before being exposed to ristocetin, an inducer of platelet agglutination and aggregation.
Platelet concentrate in acid-citrate-dextrose (ACD) was obtained from a blood bank, platelets were isolated, washed once in buffer containing ACD and saline in a ratio of 1:7. The platelets were centrifuged at 800 g for 10 min after each wash and were resuspended in Tyrodes solution (2 mM MgCl2, 137 mM NaCl, 2.68 mM KCl, 3 mM NaH2PO4, 0.1% glucose, 5 mM Hepes and 0.35% albumin, pH 7.35) and count the number of cells.
(§9) For platelet aggregation studies, platelet rich plasma (PRP) and washed platelets were stirred at 500 rpm at 37° C. in whole blood Lumiaggregometer (Chronolog, Havertown, Pa.). The difference in light transmission through the platelet suspension and suspending medium was taken as 100% aggregation. The effect of Y1 on platelet aggregation was evaluated by addition of different concentration of Y1 before the addition of agonist, and the effect was recorded for four minutes.
The effect of Y17-scFv on vWF-dependent agglutination of platelets was tested at different concentrations of Y17.

[4] = system: platelet-rich-plasma (PRP); assay: Ristocetin-induced aggregation of platelet-rich-plasma after scFv preincubation; assay type: cell-based, human
Procedure: The effect of Y1 (scFv) on aggregation of platelet-rich-plasma (PRP) was tested at various concentrations of Y1. PRP was pre-incubated with Y1 scFv, Y17 scFv, or a control sTM-1cFv for 4 min at 37° C. before being exposed to ristocetin, an inducer of platelet agglutination and aggregation. A reversible inhibitory effect was observed when scFv was added to PRP prior to the addition of ristocetin, and it was dose dependent.
Blood was collected into a tube containing 3.8% sodium citrate. Platelet-rich plasma was prepared by centrifugation at 250×g for 10 minutes.
as §9

| Molecule | activity relative to the monomer [1] | concentration used to reach 0.8 OD units [1] | binding to washed platelets after O-Sialoglycoprotein endoprotease (platelet GPIbα [2]) | binding to cathepsin G fragments of glycocalicin (platelet GPIbα [3]; Western blot) | binding after mocarhagin treatment of washed platelets (platelet GPIbα [3]; Western blot of platelet lysates) | effect on vWF-dependent platelet agglutination in washed platelets induced by ristocetin (in words) (washed platelets; final concentration of 10, 25 or 50 μg/ml) | % inhibition (washed platelets; scFv 25 μg/ml, washed platelets, ristocetin) | % agglutination (washed platelets; scFv 25 μg/ml, washed platelets, ristocetin = 100%) | effect on ristocetin-induced platelet aggregation in PRP (in words) ([4]; concentration not given) | % inhibition ([4]; scFv 38 μg/ml, PRP, ristocetin) | % aggregation ([4]; scFv 38 μg/ml, PRP, ristocetin = 100%) |
| --- | --- | --- | --- | --- | --- | --- | --- | --- | --- | --- | --- |
| Y1-cys-kak: Y1 scFv with cysteine and lysine-alanine-lysine at the carboxyl end, forms a dimer; SEQ ID NO: 212 (protein) scFv: MEVQLVESGGGVVRPGGSLRLSCAASGFTFDDYGMSWVRQAPGKGLEWVSGINWNGGSTGYADSVKGRFTISRDNAKNSLYLQMNSLRAEDTAVYYCARMRAPVIWGQGTLVTVSRGGGGSGGGGSGGGGSSELTQDPAVSVALGQTVRITCQGDSLRSYYASWYQQKPGQAPVLVIYGKNNRPSGIPDRFSGSSSGNTASLTITGAQAEDEADYYCNSRDSSGNHVVFGGGTKLTVLGGGGCKAK | approximately 100 fold | 0.1 µg/mL |  |  |  |  |  |  |  |  |  |
| Y17 scFv: second human scFv clone selected on platelets; SEQ ID NO: 203, heavy chain CDR3 SEQ ID NO: 20 (protein, listed as Homo sapiens) scFv: MKYLLPTAAAGLLLLAAQPAMAEVQLVESGGGVVRPGGSLRLSCAASGFTFDDYGMSWVRQAPGKGLEWVSGINWNGGSTGYADSVKGRFTISRDNAKNSLYLQMNSLRAEDTAVYYCARLTHPYFWGQGTLVTVSRGGGGSGGGGSGGGGSSELTQDPAVSVALGQTVRITCQGDSLRSYYASWYQQKPGQAPVLVIYGKNNRPSGIPDRFSGSSSGNTASLTITGAQAEDEADYYCNSRDSSGNHVVFGGGTKLTVLGAAAEQKLISEEDLNGAA |  |  | abolishes binding | bound to the larger fragment (His1-Val-296), but not to the smaller fragment (His1-Leu275) | binding of Y17 to the N-terminal 45 kDa tryptic fragment | did not inhibit | 15% | 85% | did not inhibit | 0% | 100% |
